In publication PMC8420576 (2021):

B1: VHH antibody Re5D06, labeled with two PEG11-biotins (VHH)
VHH: QVQLVESGGGLVQPGGSLRLSCAASGITLDYYAIGWFRQAPGKEREGVSRIRSSDGSTNYADSVKGRFTMSRDNAKNTVYLQMNSLKPEDTAVYYCAYGPLTKYGSSWYWPYEYDYWGQGTQVTVSS
B2: VHH antibody Re9F06 (VHH)
VHH: QVQLVESGGGLVQAGGSLRLSCAASGRTFSNDALGWFRQAPRKEREFVAAINWNSGTYYADSVKGRFTISRDNAKNTVYLQMNSLKPEDTAVYSCAAASDYGLPREDFLYDYWGQGTQVTVSS

Assays:
Assay in all cases: BLI
[1] = molecular target: T1, SARS-CoV-2 RBD wt (GenScript Z03479) (SARS-CoV-2, UniProt P0DTC2 319-541)
[2] = molecular target: T1, SARS-CoV-2 RBD wt (GenScript Z03479); remark: listed apart in the source
[3] = molecular target: T2, SARS-CoV-2 Spike RBD (residues 334–527), C-terminal Avi-His6 tag, biotinylated (SARS-CoV-2, UniProt P0DTC2 334-527, biotin on the Avi-tag)
[4] = molecular target: T2, SARS-CoV-2 Spike RBD (residues …); remark: listed apart in the source

| Binder | Kd [1] | koff [2] | Kd [3] | koff [4] |
| --- | --- | --- | --- | --- |
| B1 | < 0.01 nM | 1.6e-06 s⁻¹ | – | – |
| B2 | – | – | 270 nM | 0.00045 s⁻¹ |
